From patent publication US20140057857A1 (RESEARCH FOUNDATION FOR THE STATE UNIVERSITY OF NEW YORK, published 2014)
Numbered stars: 1 amine (or outer) side, 2 acyl side, 3 side chain; on linkers, the order of the positions; unused ones are H or OH. Bridge positions count the residues as written; N and C are the ends. Square brackets hold non-standard residues; d marks the D form. Ends that are not written are not given here. CH2(3,3'-bipyridine-6,6')CH2 = c1cc(C[*:1])ncc1-c1ccc(C[*:2])nc1; Biphenyl(4,4'-CH2)2 = c1cc(-c2ccc(C[*:2])cc2)ccc1C[*:1]

T1: GST-MDMX containing full-length human MDMX (human, UniProt O15151 1-490)
T1 construct: mature; MDMX', expressed in E. coli as a GST fusion; 'mature' stands for full-length; not shown: GST tag
T1 sequence (looked up): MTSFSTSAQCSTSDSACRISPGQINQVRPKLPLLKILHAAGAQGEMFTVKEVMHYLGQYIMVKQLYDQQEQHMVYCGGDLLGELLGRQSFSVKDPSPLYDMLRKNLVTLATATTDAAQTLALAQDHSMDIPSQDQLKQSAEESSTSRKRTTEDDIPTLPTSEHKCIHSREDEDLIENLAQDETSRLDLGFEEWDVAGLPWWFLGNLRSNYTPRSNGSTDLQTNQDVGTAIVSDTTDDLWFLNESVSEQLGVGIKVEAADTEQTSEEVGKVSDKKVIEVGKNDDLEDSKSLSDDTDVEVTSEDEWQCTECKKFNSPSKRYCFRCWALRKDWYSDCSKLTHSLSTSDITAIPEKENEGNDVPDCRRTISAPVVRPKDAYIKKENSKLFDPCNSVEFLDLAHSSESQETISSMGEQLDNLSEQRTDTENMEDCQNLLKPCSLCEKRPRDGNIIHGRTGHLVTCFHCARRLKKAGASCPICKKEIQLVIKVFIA


Assays:
GST-Mcl-1 [1] = assay: fluorescence polarization assay, labeled peptide on GST-Mcl-1
GST-Bcl-xL = assay: fluorescence polarization assay, labeled peptide on GST-Bcl-xL
GST-Mcl-1 [2] = assay: fluorescence polarization assay, Mcl-1 against Bcl-xL
[3] = target: T1, GST-MDMX containing full-length human …; assay: competition ELISA: peptide inhibits GST-MDMX binding to coated His6-p53
[4] = target: T1, GST-MDMX containing full-length human …; assay: competition ELISA, against linear peptide 3
[5] = target: T2, GST-MDM2 containing full-length human MDM2 (human, UniProt Q00987 1-491); assay: competition ELISA: peptide inhibits GST-MDM2 binding to coated His6-p53
T2 construct: mature; 'mature' stands for full-length; not shown: GST tag

GST-Mcl-1 [6] = assay: competitive FP assay: displacement of fluorescein-labeled Bak from GST-Mcl-1
GST-Mcl-1 [7] = assay: ELISA (format not described; target taken to be Mcl-1)
GST-Mcl-1 [8] = assay: competitive FP assay, against the parent linear peptide
[9] = target: T2, GST-MDM2 containing full-length human …; assay: competition ELISA; reference not named in the sentence (peptide 1 or PDI)
GST-Mcl-1 [10] = assay: ELISA; the upper end is tied to 5b by Table 3 (25 nM against 340 nM)

T2 sequence (Q00987 whole entry): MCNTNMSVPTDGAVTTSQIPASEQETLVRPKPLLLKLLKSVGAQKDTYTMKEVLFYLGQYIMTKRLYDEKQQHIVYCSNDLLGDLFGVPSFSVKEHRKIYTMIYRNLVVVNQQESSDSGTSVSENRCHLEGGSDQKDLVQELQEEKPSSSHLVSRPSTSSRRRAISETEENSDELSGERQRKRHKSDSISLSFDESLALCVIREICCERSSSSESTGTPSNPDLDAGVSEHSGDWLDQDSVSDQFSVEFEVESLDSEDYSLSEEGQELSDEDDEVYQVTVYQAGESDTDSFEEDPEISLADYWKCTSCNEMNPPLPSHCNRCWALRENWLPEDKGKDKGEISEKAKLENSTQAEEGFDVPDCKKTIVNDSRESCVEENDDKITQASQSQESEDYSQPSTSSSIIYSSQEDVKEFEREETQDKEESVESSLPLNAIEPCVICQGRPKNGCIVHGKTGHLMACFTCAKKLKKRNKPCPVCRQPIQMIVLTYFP
Chain of GST-Mcl-1 (Q07820 whole entry): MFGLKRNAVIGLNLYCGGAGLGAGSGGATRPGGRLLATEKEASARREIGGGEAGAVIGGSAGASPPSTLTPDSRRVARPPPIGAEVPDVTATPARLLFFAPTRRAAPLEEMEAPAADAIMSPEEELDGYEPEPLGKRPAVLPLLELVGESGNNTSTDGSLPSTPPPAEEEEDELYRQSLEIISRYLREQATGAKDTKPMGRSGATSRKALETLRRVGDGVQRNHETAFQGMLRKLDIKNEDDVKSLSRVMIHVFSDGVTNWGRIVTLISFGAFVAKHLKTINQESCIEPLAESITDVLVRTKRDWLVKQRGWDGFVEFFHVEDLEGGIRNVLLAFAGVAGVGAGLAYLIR
Chain of GST-Bcl-xL (Q07817 whole entry): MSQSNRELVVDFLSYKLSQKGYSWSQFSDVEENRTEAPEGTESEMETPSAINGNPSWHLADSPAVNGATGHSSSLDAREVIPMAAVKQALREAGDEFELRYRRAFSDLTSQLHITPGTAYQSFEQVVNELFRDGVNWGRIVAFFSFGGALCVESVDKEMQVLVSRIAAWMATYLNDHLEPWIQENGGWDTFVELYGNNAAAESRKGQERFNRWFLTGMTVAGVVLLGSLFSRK

Binder | IC50 [3] [nM] | IC50 [5] [nM] | IC50 (GST-Mcl-1 [6]) [nM] | also measured
AAXLRRIGDXVNLRQKLLN (N-terminal FITC-Ahx; D-cysteine at position 3; D-Cys 3 and L-Cys 10 cross-linked by Bph; C-terminal amide, also called Fl-6a; Fluo-6a) [Fluorescein-labeled cross-linked Noxa peptide 6a] |  |  |  | Kd (GST-Mcl-1 [1]): 0.7 nM; Kd (GST-Bcl-xL): > 2000 nM; fold selectivity for Mcl-1 over Bcl-xL (GST-Mcl-1 [2]): > 2000 fold
Ac-LTF[dC]RYWARLCS-NH2 (linker 4-11 via CH2(3,3'-bipyridine-6,6')CH2; SMILES CC(=O)N[C@@H](CC(C)C)C(=O)N[C@H](C(=O)N[C@@H](Cc1ccccc1)C(=O)N[C@@H]1CSCc2ccc(cn2)-c2ccc(nc2)CSC[C@@H](C(=O)N[C@@H](CO)C(N)=O)NC(=O)[C@H](CC(C)C)NC(=O)[C@H](CCCNC(=N)N)NC(=O)[C@H](C)NC(=O)[C@H](Cc2c[nH]c3ccccc23)NC(=O)[C@H](Cc2ccc(O)cc2)NC(=O)[C@H](CCCNC(=N)N)NC1=O)[C@@H](C)O, Printed as LTFc"RYWARLC"S) [PDI analog 4b (Bpy cross-linked D,L-dicysteine peptide, two arginines)] | 1150 |  |  | 
Ac-LTFCHYWAQLCS-NH2 (cysteine pairing not given here, not cross-linked; also called peptide 1) [PDI analog 1 (linear L,L-dicysteine peptide)] | 1850 | 57 |  | 
LTF[dC]HYWAQLCS-NH2 (not fully specified (N-terminus); printed as LTFcHYWAQLCS; cysteine pairing not given here, not cross-linked; also called peptide 3) [PDI analog 3 (linear (D,L)-dicysteine peptide)] | 339 | 13 |  | fold increase in MDM2 activity [9]: > 3 fold
Ac-LTFCHYWAQLCS-NH2 (linker 4-11 via Biphenyl(4,4'-CH2)2, Printed as LTFC'HYWAQLC'S (C' = Bph-linked cysteine)) [PDI analog 1a (Bph cross-linked L,L-dicysteine peptide)] | 4810 | 39 |  | 
Ac-LTFCRYWARLCS-NH2 (linker 4-11 via Biphenyl(4,4'-CH2)2, Printed as LTFC'RYWARLC'S) [PDI analog 2a (Bph cross-linked, two arginines)] | 5520 | 244 |  | 
Ac-LTF[dC]HYWAQLCS-NH2 (linker 4-11 via Biphenyl(4,4'-CH2)2; SMILES CC(=O)N[C@@H](CC(C)C)C(=O)N[C@H](C(=O)N[C@@H](Cc1ccccc1)C(=O)N[C@@H]1CSCc2ccc(cc2)-c2ccc(cc2)CSC[C@@H](C(=O)N[C@@H](CO)C(N)=O)NC(=O)[C@H](CC(C)C)NC(=O)[C@H](CCC(N)=O)NC(=O)[C@H](C)NC(=O)[C@H](Cc2c[nH]c3ccccc23)NC(=O)[C@H](Cc2ccc(O)cc2)NC(=O)[C@H](Cc2c[nH]cn2)NC1=O)[C@@H](C)O, Printed as LTFc'HYWAQLC'S) [PDI analog 3a (Bph cross-linked D,L-dicysteine peptide)] | 22 | 8.3 |  | fold increase in MDMX activity [4]: 15 fold
AAXLRRIGDXVNLRQKLLN (D-cysteine at position 3; D-Cys 3 and L-Cys 10 cross-linked by Bpy; N-terminal acetyl; C-terminal amide) [Cross-linked Noxa peptide 6b (Bpy, D-Cys 77 / L-Cys 84)] |  |  | 140 | IC50 (GST-Mcl-1 [7]): 140 nM
AAXLRRIGDXVNLRQKLLN (Cys 3 and Cys 10 of the peptide (NoxaB 77 and 84) cross-linked by Bph; N-terminal acetyl; C-terminal amide) [Cross-linked Noxa peptide 5a (Bph, L,L-cysteines at 77/84)] |  |  | 18 | fold increase in activity (GST-Mcl-1 [8]): 67 fold; IC50 (GST-Mcl-1 [7]): 75 nM
Ac-LTFCHYWAQLCS-NH2 (linker 4-11 via CH2(3,3'-bipyridine-6,6')CH2; SMILES CC(=O)N[C@@H](CC(C)C)C(=O)N[C@H](C(=O)N[C@@H](Cc1ccccc1)C(=O)N[C@H]1CSCc2ccc(cn2)-c2ccc(nc2)CSC[C@@H](C(=O)N[C@@H](CO)C(N)=O)NC(=O)[C@H](CC(C)C)NC(=O)[C@H](CCC(N)=O)NC(=O)[C@H](C)NC(=O)[C@H](Cc2c[nH]c3ccccc23)NC(=O)[C@H](Cc2ccc(O)cc2)NC(=O)[C@H](Cc2c[nH]cn2)NC1=O)[C@@H](C)O, Printed as LTFC"HYWAQLC"S (C" = Bpy-linked cysteine)) [PDI analog 1b (Bpy cross-linked L,L-dicysteine peptide)] | 890 | 35 |  | 
AAXLRRIGDXVNLRQKLLN (Cys 3 and Cys 10 of the peptide (NoxaB 77 and 84) cross-linked by Bpy; N-terminal acetyl; C-terminal amide) [Cross-linked Noxa peptide 5b (Bpy, L,L-cysteines at 77/84)] |  |  | 45 | fold improvement over the parent peptide (GST-Mcl-1 [10]): 14 fold; IC50 (GST-Mcl-1 [7]): 25 nM
AAXLRRIGDXVNLRQKLLN (N-terminal FITC-Ahx; Cys 3 and Cys 10 cross-linked by Bph; C-terminal amide, also called Fl-5a; Fluo-5a) [Fluorescein-labeled cross-linked Noxa peptide 5a] |  |  |  | Kd (GST-Mcl-1 [1]): 0.8 nM; Kd (GST-Bcl-xL): > 2000 nM; fold selectivity for Mcl-1 over Bcl-xL (GST-Mcl-1 [2]): > 2000 fold

More lines, main results first:

IC50 [3] [nM] | IC50 [5] [nM] | IC50 (GST-Mcl-1 [6]) [nM] | Binder | also measured
14 | 5.4 |  | Ac-LTF[dC]HYWAQLCS-NH2 (linker 4-11 via CH2(3,3'-bipyridine-6,6')CH2; SMILES CC(=O)N[C@@H](CC(C)C)C(=O)N[C@H](C(=O)N[C@@H](Cc1ccccc1)C(=O)N[C@@H]1CSCc2ccc(cn2)-c2ccc(nc2)CSC[C@@H](C(=O)N[C@@H](CO)C(N)=O)NC(=O)[C@H](CC(C)C)NC(=O)[C@H](CCC(N)=O)NC(=O)[C@H](C)NC(=O)[C@H](Cc2c[nH]c3ccccc23)NC(=O)[C@H](Cc2ccc(O)cc2)NC(=O)[C@H](Cc2c[nH]cn2)NC1=O)[C@@H](C)O, Printed as LTFc"HYWAQLC"S) [PDI analog 3b (Bpy cross-linked D,L-dicysteine peptide)] | fold increase in MDMX activity [4]: 24 fold
 |  | 32 | Ac-AAQLRCIGDKVNCRQKLLN-NH2 (linker 6-13 via Biphenyl(4,4'-CH2)2; SMILES CC[C@H](C)[C@@H]1NC(=O)[C@@H](NC(=O)[C@H](CCCNC(=N)N)NC(=O)[C@H](CC(C)C)NC(=O)[C@H](CCC(N)=O)NC(=O)[C@H](C)NC(=O)[C@H](C)NC(C)=O)CSCc2ccc(cc2)-c2ccc(cc2)CSC[C@@H](C(=O)N[C@@H](CCCNC(=N)N)C(=O)N[C@@H](CCC(N)=O)C(=O)N[C@@H](CCCCN)C(=O)N[C@@H](CC(C)C)C(=O)N[C@@H](CC(C)C)C(=O)N[C@@H](CC(N)=O)C(N)=O)NC(=O)[C@H](CC(N)=O)NC(=O)[C@H](C(C)C)NC(=O)[C@H](CCCCN)NC(=O)[C@H](CC(=O)O)NC(=O)CNC1=O, Printed as AAQLRC'IGDKVNC'RQKLLN) [Cross-linked Noxa peptide 7a (Bph, L,L-cysteines at 80/87)] | IC50 (GST-Mcl-1 [7]): 37 nM
 |  | 73 | AAXLRRIGDXVNLRQKLLN (D-cysteine at position 3; D-Cys 3 and L-Cys 10 cross-linked by Bph; N-terminal acetyl; C-terminal amide) [Cross-linked Noxa peptide 6a (Bph, D-Cys 77 / L-Cys 84)] | fold increase in activity (GST-Mcl-1 [8]): 37 fold; IC50 (GST-Mcl-1 [7]): 260 nM
1520 |  |  | Ac-LTFCRYWARLCS-NH2 (linker 4-11 via CH2(3,3'-bipyridine-6,6')CH2; SMILES CC(=O)N[C@@H](CC(C)C)C(=O)N[C@H](C(=O)N[C@@H](Cc1ccccc1)C(=O)N[C@H]1CSCc2ccc(cn2)-c2ccc(nc2)CSC[C@@H](C(=O)N[C@@H](CO)C(N)=O)NC(=O)[C@H](CC(C)C)NC(=O)[C@H](CCCNC(=N)N)NC(=O)[C@H](C)NC(=O)[C@H](Cc2c[nH]c3ccccc23)NC(=O)[C@H](Cc2ccc(O)cc2)NC(=O)[C@H](CCCNC(=N)N)NC1=O)[C@@H](C)O, Printed as LTFC"RYWARLC"S) [PDI analog 2b (Bpy cross-linked, two arginines)] | 
4490 | 208 |  | Ac-LTF[dC]RYWARLCS-NH2 (linker 4-11 via Biphenyl(4,4'-CH2)2, Printed as LTFc'RYWARLC'S) [PDI analog 4a (Bph cross-linked D,L-dicysteine peptide, two arginines)] | 
 |  | 230 | AAXLRRIGDXVNLRQKLLN (alpha-methyl-L-cysteine at positions 3 and 10, cross-linked by Bph; N-terminal acetyl; C-terminal amide) [Cross-linked Noxa peptide 8a (Bph, alpha-methyl-L-cysteines at 77/84)] | 
